Source: patent publication US20130303439A1, “CHIMERIC PEPTIDES INCLUDING A PENETRATING PEPTIDE AND A BINDING DOMAIN OF PP2A CATALYTIC SUBUNIT TO CASPASE-9” (Institut National de la Sante et de la Recherche Medicale …, priority 2010, published 2013)
Residues, ends and D or L forms follow the SMILES beside them. No end group written: not given here.

T1: human caspase-9 (Homo sapiens, UniProt P55211)
T1 sequence (P55211 1-416): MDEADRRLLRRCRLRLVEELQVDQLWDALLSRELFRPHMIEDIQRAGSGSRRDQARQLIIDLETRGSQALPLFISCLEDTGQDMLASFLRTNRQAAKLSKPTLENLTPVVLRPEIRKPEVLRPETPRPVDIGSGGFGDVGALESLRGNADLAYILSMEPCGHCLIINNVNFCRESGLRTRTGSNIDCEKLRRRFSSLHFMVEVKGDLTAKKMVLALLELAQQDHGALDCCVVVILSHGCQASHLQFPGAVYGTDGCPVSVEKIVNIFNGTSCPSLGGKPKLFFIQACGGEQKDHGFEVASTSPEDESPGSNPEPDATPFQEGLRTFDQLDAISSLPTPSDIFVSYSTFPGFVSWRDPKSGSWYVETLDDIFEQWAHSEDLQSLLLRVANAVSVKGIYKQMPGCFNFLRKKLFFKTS

T2: caspase-9 from lysate of murine TS1αβ cells (mouse, UniProt Q8C3Q9 1-454, limits assumed)
T2 construct: Endogenous protein in the lysate; also called murine caspase-9; mouse caspase-9
T2 sequence (looked up): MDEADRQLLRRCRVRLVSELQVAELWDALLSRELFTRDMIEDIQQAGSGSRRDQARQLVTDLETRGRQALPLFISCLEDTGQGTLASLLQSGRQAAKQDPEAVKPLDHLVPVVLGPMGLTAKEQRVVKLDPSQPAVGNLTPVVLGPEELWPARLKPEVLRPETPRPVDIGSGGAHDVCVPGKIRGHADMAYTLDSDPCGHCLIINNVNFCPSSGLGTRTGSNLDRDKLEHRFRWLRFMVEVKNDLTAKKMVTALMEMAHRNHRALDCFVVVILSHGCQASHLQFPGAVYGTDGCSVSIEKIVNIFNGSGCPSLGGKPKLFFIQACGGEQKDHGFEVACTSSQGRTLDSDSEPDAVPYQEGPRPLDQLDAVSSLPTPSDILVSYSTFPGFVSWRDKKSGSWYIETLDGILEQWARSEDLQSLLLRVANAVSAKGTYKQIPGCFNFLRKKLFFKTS

B1: C9 peptide (mouse caspase-9 aa 401-418, PP2Ac binding domain) (peptide)
peptide: YIETLDGILEQWARSEDL
modifications: also: biotinylated, position not given here
notes: Synthetic, non cell-penetrating peptide; Used biotinylated on streptavidin beads in the pull-down; also called C9m
B2: DPT-C9r (fusion of DPT-sh1 and C9 reverse sequence) (peptide)
peptide: VKKKKIKREIKILDESRAWQELIGDLTEIY
modifications: also: biotinylated, position not given here
notes: Negative control peptide; Used biotinylated in the pull-down

Columns and labels:
[1] = Cell penetration / internalization of peptides; assay type: cell-based
human caspase-9 = target: T1, human caspase-9; test: Caspase-9-binding assay on cellulose-bound peptides containing human PP2Ac sequences; conditions: dodecapeptides bound onto cellulose membrane
Procedure: Overlapping dodecapeptides covering the whole human PP2Ac sequence were prepared by atomated spot synthesis (Abimed, Langerfield, Germany) onto an amino-derived cellulose membrane, as described (Frank and Overwin, 1996 Meth. Mol. Biol. 66, 149-169; Gausepohl et al., 1992 Pept Res, 5, 315-320). The membrane was saturated using 3% BSA and 3% non-fat dry milk, incubated with purified human caspase-9 and after several washing steps, incubates with anti-caspase-9 antibody, followed by PO-conjugated secondary antibody. Positive spots were visualized using the ECL system.
To identify peptides containing PP2Ac sequences able to binding to caspase-9, a series of 150 overlapping dodecapeptides (shift of 2 amino acids) from human PP2Ac (sequence deduced from NCBI, accession number NP_00270601) were bound onto a cellulose membrane and incubated with purified caspase-9.

PP2Ac = target: T3, PP2Ac (Mus musculus, UniProt P63330); test: Pull down assay of biotinylated peptides with cell lysate, Western blot with PP2Ac antibody; assay type: binding, murine; conditions: cellular extracts from IL-2-stimulated cells
T3 construct: endogenous in cells; host or cells: TS1αβ murine T cell line, IL-2-stimulated, NP-40 lysate
T3 sequence (P63330 whole entry): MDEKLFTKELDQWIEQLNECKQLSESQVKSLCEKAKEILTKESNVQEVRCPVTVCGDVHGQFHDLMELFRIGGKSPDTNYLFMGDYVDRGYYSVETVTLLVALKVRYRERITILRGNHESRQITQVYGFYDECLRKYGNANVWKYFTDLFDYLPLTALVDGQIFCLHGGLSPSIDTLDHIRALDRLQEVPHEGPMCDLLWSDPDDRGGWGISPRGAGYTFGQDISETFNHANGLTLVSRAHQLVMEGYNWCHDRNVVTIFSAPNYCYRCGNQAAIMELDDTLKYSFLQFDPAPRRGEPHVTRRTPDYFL
Procedure: Biotinylated peptides were preincubated 2 h at 0-100 μM (in final concentration with lysate) at room temperature with 30 μl of streptavidin-coated immunomagnetic beads (Calbiochem, San Diego Calif.). During this time, […] exponentially growing TS1αβ cells were first washed twice with PBS and then lysed 10 minutes on ice in 400 μl of lysis buffer (50 mM Tris pH7.4, 150 mM NaCl, 20% glycerol, 1% NP-40, 10 mM EDTA, 1 mM PhenylMethylSulfonyl Fluoride, 10 mM NaF, 1 mM orthovanadate, “complete, EDTA-free” protease inhibitor cocktail from Roche).
Lysates were clarified at 13000 g for 10 minutes at 4° C. and were incubated with biotinylated peptides associated with the streptavidin-coated immunomagnetic beads 2 h at 4° C. Biotinylated peptides were pulled down with streptavidin beads and washed two times in 700 μl of lysis buffer on ice. Bound proteins and unbound lysates were then analyzed by SDS-PAGE and Western Blotting using PP1c or PP2Ac antibodies.
To determine the capacity of DPT-C9 to interact with PP2Ac, the inventors performed pull-down experiments using cellular extracts from IL-2-stimulated cells incubated with biotinylated peptides or beads alone.

TS1αβ cells = test: Cell death assay (annexin V / PI flow cytometry); assay type: cell-based, murine; conditions: peptides at 150 μM
Procedure: An Annexin-V-FITC conjugated kit (Roche) was used for the assessment of outer leaflet exposure of phosphatidylserine (PS) in the plasma membrane of apoptotic cells. Staining was performed according to the manufacturer's instructions. A total of […] cells were analyzed by flow cytometry in a FACSCalibur cytofluometer (BD Biosciences). Necrotic cells were excluded by propidium iodide (PI) staining, and single annexin V positive cells were considered apoptotic. For apoptotic analysis the different peptides were used at 150 μM.
Using flow cytometry detection of annexin V and PI, the inventors analyzed the capacity of DPT-C9 to induce apoptosis in TS1αβ cells cultured in presence of IL-2. In contrast to non penetrating C9 peptide, DPT-C9 induced a 6-fold increase of apoptosis.

[2] = target: T2, caspase-9 from lysate of murine TS1αβ …; test: pull-down from IL-2-stimulated TS1αβ cell lysate with biotinylated peptide on streptavidin beads, Western blot
[3] = target: T4, PP2Ac (catalytic subunit of PP2A) from lysate of IL-2-stimulated murine TS1αβ cells (mouse, UniProt P63330 1-309); test: as above
T4 construct: Endogenous protein from cell lysate, detected by Western blot with a PP2Ac antibody; It may have been part of a PP2A holoenzyme in the lysate
T4 sequence (P63330 whole entry): as above

| Molecule | Cell penetration [1] | internalized [1] | binding to purified caspase-9 (human caspase-9) | other results |
| --- | --- | --- | --- | --- |
| CC[C@H](C)[C@H](NC(=O)CNC(=O)[C@H](CC(=O)O)NC(=O)[C@H](CC(C)C)NC(=O)[C@@H](NC(=O)[C@H](CCC(=O)O)NC(=O)[C@@H](NC(=O)[C@@H](N)Cc1ccc(O)cc1)[C@@H](C)CC)[C@@H](C)O)C(=O)N[C@@H](CC(C)C)C(=O)N[C@@H](CCC(=O)O)C(=O)N[C@@H](CCC(N)=O)C(=O)N[C@@H](Cc1c[nH]c2ccccc12)C(=O)N[C@@H](C)C(=O)N[C@@H](CCCNC(=N)N)C(=O)N[C@@H](CO)C(=O)N[C@@H](CCC(=O)O)C(=O)N[C@@H](CC(=O)O)C(=O)N[C@@H](CC(C)C)C(=O)O [C9, YIETLDGILEQWARSEDL] (H-YIETLDGILEQWARSEDL-OH; N-terminus and C-terminus assumed) | No | is not internalized |  |  |
| CC[C@H](C)[C@H](NC(=O)CNC(=O)[C@H](CC(=O)O)NC(=O)[C@H](CC(C)C)NC(=O)[C@@H](NC(=O)[C@H](CCC(=O)O)NC(=O)[C@@H](NC(=O)[C@H](Cc1ccc(O)cc1)NC(=O)[C@@H](NC(=O)[C@H](CCCCN)NC(=O)[C@@H](NC(=O)[C@H](CCC(=O)O)NC(=O)[C@H](CCCNC(=N)N)NC(=O)[C@H](CCCCN)NC(=O)[C@@H](NC(=O)[C@H](CCCCN)NC(=O)[C@H](CCCCN)NC(=O)[C@H](CCCCN)NC(=O)[C@H](CCCCN)NC(=O)[C@@H](N)C(C)C)[C@@H](C)CC)[C@@H](C)CC)[C@@H](C)CC)[C@@H](C)CC)[C@@H](C)O)C(=O)N[C@@H](CC(C)C)C(=O)N[C@@H](CCC(=O)O)C(=O)N[C@@H](CCC(N)=O)C(=O)N[C@@H](Cc1c[nH]c2ccccc12)C(=O)N[C@@H](C)C(=O)N[C@@H](CCCNC(=N)N)C(=O)N[C@@H](CO)C(=O)N[C@@H](CCC(=O)O)C(=O)N[C@@H](CC(=O)O)C(=O)N[C@@H](CC(C)C)C(=O)O [DPT-C9, VKKKKIKREIKI-YIETLDGILEQWARSEDL] (H-VKKKKIKREIKIYIETLDGILEQWARSEDL-OH; N-terminus and C-terminus assumed) | Yes | are internalized |  |  |
| CC[C@H](C)[C@H](NC(=O)[C@H](CC(C)C)NC(=O)[C@H](CCC(=O)O)NC(=O)[C@H](CCC(N)=O)NC(=O)[C@H](Cc1c[nH]c2ccccc12)NC(=O)[C@H](C)NC(=O)[C@H](CCCNC(=N)N)NC(=O)[C@H](CO)NC(=O)[C@H](CCC(=O)O)NC(=O)[C@H](CC(=O)O)NC(=O)[C@H](CC(C)C)NC(=O)[C@@H](NC(=O)[C@H](CCCCN)NC(=O)[C@@H](NC(=O)[C@H](CCC(=O)O)NC(=O)[C@H](CCCNC(=N)N)NC(=O)[C@H](CCCCN)NC(=O)[C@@H](NC(=O)[C@H](CCCCN)NC(=O)[C@H](CCCCN)NC(=O)[C@H](CCCCN)NC(=O)[C@H](CCCCN)NC(=O)[C@@H](N)C(C)C)[C@@H](C)CC)[C@@H](C)CC)[C@@H](C)CC)C(=O)NCC(=O)N[C@@H](CC(=O)O)C(=O)N[C@@H](CC(C)C)C(=O)N[C@H](C(=O)N[C@@H](CCC(=O)O)C(=O)N[C@H](C(=O)N[C@@H](Cc1ccc(O)cc1)C(=O)O)[C@@H](C)CC)[C@@H](C)O [DPT-C9r, VKKKKIKREIKI-LDESRAWQELIGDLTEIY] (H-VKKKKIKREIKILDESRAWQELIGDLTEIY-OH; N-terminus and C-terminus assumed) | Yes | are internalized |  |  |
| N=C(N)NCCC[C@H](NC(=O)[C@H](CCCNC(=N)N)NC(=O)[C@H](CCCNC(=N)N)NC(=O)[C@H](CCC(N)=O)NC(=O)[C@H](CCCNC(=N)N)NC(=O)[C@H](CCCNC(=N)N)NC(=O)[C@H](CCCCN)NC(=O)[C@H](CCCCN)NC(=O)[C@H](CCCNC(=N)N)NC(=O)CNC(=O)[C@@H](N)Cc1ccc(O)cc1)C(=O)O [Tat, YGRKKRRQRRR] |  | are internalized |  |  |
| DTLDHIRALDRL (Synthetic PP2A peptide) [dodecapeptide from human PP2Ac] |  |  | bind to purified caspase-9 |  |
| HIRALDRLQEVP (Synthetic PP2A peptide) [dodecapeptide from human PP2Ac] |  |  | bind to purified caspase-9 |  |
| LDHIRALDRLQE (Synthetic PP2A peptide) [dodecapeptide from human PP2Ac] |  |  | bind to purified caspase-9 |  |
| LDRLQEVPHEGP (Synthetic PP2A peptide) [dodecapeptide from human PP2Ac] |  |  | bind to purified caspase-9 |  |
| RALDRLQEVPHE (Synthetic PP2A peptide) [dodecapeptide from human PP2Ac] |  |  | bind to purified caspase-9 |  |
| VKKKKIKREIKI [DPT-sh1] | Yes | are internalized |  | interact with PP2Ac (PP2Ac): do not interact with PP2Ac; induction of apoptosis / cell death (in words) (TS1αβ cells): behaves as negative control |
| B1 |  |  |  | binding result [2]: no binding (tested: 0-100 µM peptide) |
| B2 |  |  |  | binding result [3]: no binding (tested: 0-100 µM peptide) |
| VKKKKIKREIKIYIETLDGILEQWARSEDL (also: biotinylated, position not given here, Used biotinylated in the pull-down) [DPT-C9 (fusion of DPT-sh1 shuttle and C9 sequence)] |  |  |  | binding result [2]: no binding (tested: 0-100 µM peptide) |
